Reference: US20190185537A1 (AstraZeneca / MedImmune, published 2019)
Numbered stars: 1 amine (or outer) side, 2 acyl side, 3 side chain; on linkers, the order of the positions; unused ones are H or OH. Side chains are listed from the residue outwards. Ends that are not written are not given here. * marks the point of attachment. γGlu = O=C(O)[C@H](CCC(=O)[*:2])N[*:1]; Palmitoyl = CCCCCCCCCCCCCCCC(=O)*

B1: g842 (peptide)
peptide: HSQGTFTSDYSRK([γGlu-Palmitoyl])LDSERARDFVAWLVAGG-OH
modifications: N-terminus assumed
SMILES: CCCCCCCCCCCCCCCC(=O)N[C@@H](CCC(=O)NCCCC[C@H](NC(=O)[C@H](CCCNC(=N)N)NC(=O)[C@H](CO)NC(=O)[C@H](Cc1ccc(O)cc1)NC(=O)[C@H](CC(=O)O)NC(=O)[C@H](CO)NC(=O)[C@@H](NC(=O)[C@H](Cc1ccccc1)NC(=O)[C@@H](NC(=O)CNC(=O)[C@H](CCC(N)=O)NC(=O)[C@H](CO)NC(=O)[C@@H](N)Cc1c[nH]cn1)[C@@H](C)O)[C@@H](C)O)C(=O)N[C@@H](CC(C)C)C(=O)N[C@@H](CC(=O)O)C(=O)N[C@@H](CO)C(=O)N[C@@H](CCC(=O)O)C(=O)N[C@@H](CCCNC(=N)N)C(=O)N[C@@H](C)C(=O)N[C@@H](CCCNC(=N)N)C(=O)N[C@@H](CC(=O)O)C(=O)N[C@@H](Cc1ccccc1)C(=O)N[C@H](C(=O)N[C@@H](C)C(=O)N[C@@H](Cc1c[nH]c2ccccc12)C(=O)N[C@@H](CC(C)C)C(=O)N[C@H](C(=O)N[C@@H](C)C(=O)NCC(=O)NCC(=O)O)C(C)C)C(C)C)C(=O)O
B2: g728 (peptide)
peptide: HSQGTFTSDYSK([γGlu-Palmitoyl])YLDSERARDFVAWLVAGG-NH2
modifications: N-terminus assumed
SMILES: CCCCCCCCCCCCCCCC(=O)N[C@@H](CCC(=O)NCCCC[C@H](NC(=O)[C@H](CO)NC(=O)[C@H](Cc1ccc(O)cc1)NC(=O)[C@H](CC(=O)O)NC(=O)[C@H](CO)NC(=O)[C@@H](NC(=O)[C@H](Cc1ccccc1)NC(=O)[C@@H](NC(=O)CNC(=O)[C@H](CCC(N)=O)NC(=O)[C@H](CO)NC(=O)[C@@H](N)Cc1c[nH]cn1)[C@@H](C)O)[C@@H](C)O)C(=O)N[C@@H](Cc1ccc(O)cc1)C(=O)N[C@@H](CC(C)C)C(=O)N[C@@H](CC(=O)O)C(=O)N[C@@H](CO)C(=O)N[C@@H](CCC(=O)O)C(=O)N[C@@H](CCCNC(=N)N)C(=O)N[C@@H](C)C(=O)N[C@@H](CCCNC(=N)N)C(=O)N[C@@H](CC(=O)O)C(=O)N[C@@H](Cc1ccccc1)C(=O)N[C@H](C(=O)N[C@@H](C)C(=O)N[C@@H](Cc1c[nH]c2ccccc12)C(=O)N[C@@H](CC(C)C)C(=O)N[C@H](C(=O)N[C@@H](C)C(=O)NCC(=O)NCC(N)=O)C(C)C)C(C)C)C(=O)O
B3: g715 (peptide)
peptide: HSQGTFTSDK([γGlu-Palmitoyl])SKYLDSRRAQDFVQWLVAGG-NH2
modifications: N-terminus assumed
SMILES: CCCCCCCCCCCCCCCC(=O)N[C@@H](CCC(=O)NCCCC[C@H](NC(=O)[C@H](CC(=O)O)NC(=O)[C@H](CO)NC(=O)[C@@H](NC(=O)[C@H](Cc1ccccc1)NC(=O)[C@@H](NC(=O)CNC(=O)[C@H](CCC(N)=O)NC(=O)[C@H](CO)NC(=O)[C@@H](N)Cc1c[nH]cn1)[C@@H](C)O)[C@@H](C)O)C(=O)N[C@@H](CO)C(=O)N[C@@H](CCCCN)C(=O)N[C@@H](Cc1ccc(O)cc1)C(=O)N[C@@H](CC(C)C)C(=O)N[C@@H](CC(=O)O)C(=O)N[C@@H](CO)C(=O)N[C@@H](CCCNC(=N)N)C(=O)N[C@@H](CCCNC(=N)N)C(=O)N[C@@H](C)C(=O)N[C@@H](CCC(N)=O)C(=O)N[C@@H](CC(=O)O)C(=O)N[C@@H](Cc1ccccc1)C(=O)N[C@H](C(=O)N[C@@H](CCC(N)=O)C(=O)N[C@@H](Cc1c[nH]c2ccccc12)C(=O)N[C@@H](CC(C)C)C(=O)N[C@H](C(=O)N[C@@H](C)C(=O)NCC(=O)NCC(N)=O)C(C)C)C(C)C)C(=O)O
B4: g820 (peptide)
peptide: HSQGTFTSDYSRK([γGlu-Palmitoyl])LDSERARDFVAWLVAGG-NH2
modifications: N-terminus assumed
SMILES: CCCCCCCCCCCCCCCC(=O)N[C@@H](CCC(=O)NCCCC[C@H](NC(=O)[C@H](CCCNC(=N)N)NC(=O)[C@H](CO)NC(=O)[C@H](Cc1ccc(O)cc1)NC(=O)[C@H](CC(=O)O)NC(=O)[C@H](CO)NC(=O)[C@@H](NC(=O)[C@H](Cc1ccccc1)NC(=O)[C@@H](NC(=O)CNC(=O)[C@H](CCC(N)=O)NC(=O)[C@H](CO)NC(=O)[C@@H](N)Cc1c[nH]cn1)[C@@H](C)O)[C@@H](C)O)C(=O)N[C@@H](CC(C)C)C(=O)N[C@@H](CC(=O)O)C(=O)N[C@@H](CO)C(=O)N[C@@H](CCC(=O)O)C(=O)N[C@@H](CCCNC(=N)N)C(=O)N[C@@H](C)C(=O)N[C@@H](CCCNC(=N)N)C(=O)N[C@@H](CC(=O)O)C(=O)N[C@@H](Cc1ccccc1)C(=O)N[C@H](C(=O)N[C@@H](C)C(=O)N[C@@H](Cc1c[nH]c2ccccc12)C(=O)N[C@@H](CC(C)C)C(=O)N[C@H](C(=O)N[C@@H](C)C(=O)NCC(=O)NCC(N)=O)C(C)C)C(C)C)C(=O)O
B5: g729 (peptide)
peptide: HSQGTFTSDYSKK([γGlu-Palmitoyl])LDSERAQDFVQWLVAGG-NH2
modifications: N-terminus assumed
SMILES: CCCCCCCCCCCCCCCC(=O)N[C@@H](CCC(=O)NCCCC[C@H](NC(=O)[C@H](CCCCN)NC(=O)[C@H](CO)NC(=O)[C@H](Cc1ccc(O)cc1)NC(=O)[C@H](CC(=O)O)NC(=O)[C@H](CO)NC(=O)[C@@H](NC(=O)[C@H](Cc1ccccc1)NC(=O)[C@@H](NC(=O)CNC(=O)[C@H](CCC(N)=O)NC(=O)[C@H](CO)NC(=O)[C@@H](N)Cc1c[nH]cn1)[C@@H](C)O)[C@@H](C)O)C(=O)N[C@@H](CC(C)C)C(=O)N[C@@H](CC(=O)O)C(=O)N[C@@H](CO)C(=O)N[C@@H](CCC(=O)O)C(=O)N[C@@H](CCCNC(=N)N)C(=O)N[C@@H](C)C(=O)N[C@@H](CCC(N)=O)C(=O)N[C@@H](CC(=O)O)C(=O)N[C@@H](Cc1ccccc1)C(=O)N[C@H](C(=O)N[C@@H](CCC(N)=O)C(=O)N[C@@H](Cc1c[nH]c2ccccc12)C(=O)N[C@@H](CC(C)C)C(=O)N[C@H](C(=O)N[C@@H](C)C(=O)NCC(=O)NCC(N)=O)C(C)C)C(C)C)C(=O)O
B6: g802 (peptide)
peptide: HSQGTFTSDYSEK([γGlu-Palmitoyl])LDSERARDFVAWLVAGG-NH2
modifications: N-terminus assumed
SMILES: CCCCCCCCCCCCCCCC(=O)N[C@@H](CCC(=O)NCCCC[C@H](NC(=O)[C@H](CCC(=O)O)NC(=O)[C@H](CO)NC(=O)[C@H](Cc1ccc(O)cc1)NC(=O)[C@H](CC(=O)O)NC(=O)[C@H](CO)NC(=O)[C@@H](NC(=O)[C@H](Cc1ccccc1)NC(=O)[C@@H](NC(=O)CNC(=O)[C@H](CCC(N)=O)NC(=O)[C@H](CO)NC(=O)[C@@H](N)Cc1c[nH]cn1)[C@@H](C)O)[C@@H](C)O)C(=O)N[C@@H](CC(C)C)C(=O)N[C@@H](CC(=O)O)C(=O)N[C@@H](CO)C(=O)N[C@@H](CCC(=O)O)C(=O)N[C@@H](CCCNC(=N)N)C(=O)N[C@@H](C)C(=O)N[C@@H](CCCNC(=N)N)C(=O)N[C@@H](CC(=O)O)C(=O)N[C@@H](Cc1ccccc1)C(=O)N[C@H](C(=O)N[C@@H](C)C(=O)N[C@@H](Cc1c[nH]c2ccccc12)C(=O)N[C@@H](CC(C)C)C(=O)N[C@H](C(=O)N[C@@H](C)C(=O)NCC(=O)NCC(N)=O)C(C)C)C(C)C)C(=O)O
B7: g716 (peptide)
peptide: HSQGTFTSDYK([γGlu-Palmitoyl])KYLDSRRAQDFVQWLVAGG-NH2
modifications: N-terminus assumed
SMILES: CCCCCCCCCCCCCCCC(=O)N[C@@H](CCC(=O)NCCCC[C@H](NC(=O)[C@H](Cc1ccc(O)cc1)NC(=O)[C@H](CC(=O)O)NC(=O)[C@H](CO)NC(=O)[C@@H](NC(=O)[C@H](Cc1ccccc1)NC(=O)[C@@H](NC(=O)CNC(=O)[C@H](CCC(N)=O)NC(=O)[C@H](CO)NC(=O)[C@@H](N)Cc1c[nH]cn1)[C@@H](C)O)[C@@H](C)O)C(=O)N[C@@H](CCCCN)C(=O)N[C@@H](Cc1ccc(O)cc1)C(=O)N[C@@H](CC(C)C)C(=O)N[C@@H](CC(=O)O)C(=O)N[C@@H](CO)C(=O)N[C@@H](CCCNC(=N)N)C(=O)N[C@@H](CCCNC(=N)N)C(=O)N[C@@H](C)C(=O)N[C@@H](CCC(N)=O)C(=O)N[C@@H](CC(=O)O)C(=O)N[C@@H](Cc1ccccc1)C(=O)N[C@H](C(=O)N[C@@H](CCC(N)=O)C(=O)N[C@@H](Cc1c[nH]c2ccccc12)C(=O)N[C@@H](CC(C)C)C(=O)N[C@H](C(=O)N[C@@H](C)C(=O)NCC(=O)NCC(N)=O)C(C)C)C(C)C)C(=O)O

What follows are binders tested against T1, human glucose-dependent insulinotropic peptide (gastric inhibitory polypeptide) receptor (human) (UniProt P48546) (assay: cell-based or functional assay).
T1 sequence (looked up): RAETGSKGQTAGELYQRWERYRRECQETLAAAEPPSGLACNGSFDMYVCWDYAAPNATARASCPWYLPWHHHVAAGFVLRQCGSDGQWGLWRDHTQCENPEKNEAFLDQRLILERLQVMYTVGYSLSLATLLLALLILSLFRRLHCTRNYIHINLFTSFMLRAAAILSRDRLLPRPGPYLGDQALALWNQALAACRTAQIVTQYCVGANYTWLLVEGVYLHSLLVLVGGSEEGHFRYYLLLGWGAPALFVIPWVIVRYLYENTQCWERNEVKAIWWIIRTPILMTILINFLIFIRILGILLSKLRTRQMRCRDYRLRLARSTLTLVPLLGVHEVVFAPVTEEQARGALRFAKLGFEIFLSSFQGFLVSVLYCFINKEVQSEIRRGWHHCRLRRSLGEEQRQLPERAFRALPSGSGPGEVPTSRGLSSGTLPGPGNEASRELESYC

Row | Binder | cAMP EC50 (assay 1) [nM]
1 | B1 | 88.3
2 | B2 | 395
3 | B3 | 0.998
4 | B4 | 71.1
5 | B5 | 209
6 | B6 | 91.2
7 | B7 | 11.8

The binders below were run against human glucagon receptor (human, UniProt P47871 26-477) (assay: cell-based or functional assay).
Chain of human glucagon receptor (P47871 26-477): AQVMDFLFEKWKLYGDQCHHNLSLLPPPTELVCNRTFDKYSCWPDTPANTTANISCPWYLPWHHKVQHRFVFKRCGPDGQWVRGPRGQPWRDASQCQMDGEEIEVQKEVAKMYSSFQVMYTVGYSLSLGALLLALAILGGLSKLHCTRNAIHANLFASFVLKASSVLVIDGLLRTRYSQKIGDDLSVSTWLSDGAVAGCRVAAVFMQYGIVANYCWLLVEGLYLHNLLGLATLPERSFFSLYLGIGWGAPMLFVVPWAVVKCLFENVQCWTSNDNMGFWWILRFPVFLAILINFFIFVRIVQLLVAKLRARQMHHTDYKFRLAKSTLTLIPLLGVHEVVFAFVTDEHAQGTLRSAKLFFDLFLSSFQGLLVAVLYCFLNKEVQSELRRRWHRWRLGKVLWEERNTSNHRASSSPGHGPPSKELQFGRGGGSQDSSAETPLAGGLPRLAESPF

Row | Binder | cAMP EC50 (assay 1) [nM]
8 | B1 | 0.00831
9 | B2 | 2.44
10 | B3 | 0.00253
11 | B4 | 0.0117
12 | B5 | 0.0319
13 | B6 | 1.81
14 | B7 | 2.46

The binders below were run against human GLP-1 receptor (human, UniProt P43220 24-463) (assay: cell-based or functional assay).
Chain of human GLP-1 receptor (P43220 24-463): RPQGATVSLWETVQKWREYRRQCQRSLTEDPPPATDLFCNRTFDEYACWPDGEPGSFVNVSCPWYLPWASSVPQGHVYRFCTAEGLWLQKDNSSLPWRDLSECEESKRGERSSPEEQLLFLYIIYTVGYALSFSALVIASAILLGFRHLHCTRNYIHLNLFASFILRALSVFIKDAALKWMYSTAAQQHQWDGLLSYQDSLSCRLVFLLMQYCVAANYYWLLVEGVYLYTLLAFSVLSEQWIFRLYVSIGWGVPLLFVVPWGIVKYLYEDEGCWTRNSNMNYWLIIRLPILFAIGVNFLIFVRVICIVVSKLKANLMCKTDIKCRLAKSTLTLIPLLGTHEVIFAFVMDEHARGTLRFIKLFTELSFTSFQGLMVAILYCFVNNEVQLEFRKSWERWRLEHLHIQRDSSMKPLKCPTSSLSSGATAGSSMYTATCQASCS

Row | Binder | cAMP EC50 (assay 1) [nM]
15 | B1 | 0.0512
16 | B2 | 0.169
17 | B3 | 0.0204
18 | B4 | 0.0339
19 | B5 | 0.0729
20 | B6 | 0.0964
21 | B7 | 12.9
